# Results published in patent publication US20160251438A1 (LUDWIG INSTITUTE FOR CANCER RESEARCH, published 2016).
# B1: LHG-10 (antibody, human IgG1, V domains shown)
# VH: EVQLVQPGAELRNSGASVKVSCKASGYRFTSYYIDWVRQAPGQGLEWMGRIDPEDGGTKYAQKFQGRVTFTADTSTSTAYVELSSLRSEDTAVYYCARNEWETVVVGDLMYEYEYWGQGTQVTVSS
# VL: DIQMTQSPTSLSASLGDRVTITCQASQSISSYLAWYQQKPGQAPKLLIYGASRLQTGVPSRFSGSGSGTSFTLTISGLEAEDAGTYYCQQYDSLPVTFGQGTKVELK
# notes: llama-derived V regions in a full human IgG1
# How the values were obtained:
# human TGF-β1 (latent) = biological target: T1, human TGF-β1 (latent) (human, UniProt P01137 30-390); assay: FACS, 293T + hTGFB1 only [cont.) B]
# T1 construct: from transfected hTGFB1; also called hTGF-β1; hTGFB1
# Excerpt: No latent TGF-β is detected on their surface with an anti-LAP antibody. Transfection of GARP or TGFB1 alone induces no or low surface LAP, respectively, whereas co-transfection of GARP and TGFB1 induces high surface LAP as a result of latent TGF-β1 binding and presentation by GARP (FIG. 14, part B, left histograms).
# [1] = biological target: T2, mGARP/hTGF-β1 complex on the cell surface (mouse; human, UniProt G3XA59 18-663); assay: FACS, 293T, HA-tagged mouse GARP + hTGFB1
# T2 construct: whole, on cells; also called cells transfected with hTGFB1 and mGARP
# [2] = biological target: GARP M111T/A112G/T113M / TGF-β1 complex (human, UniProt Q14392 20-662; P01137 30-390); assay: flow cytometry on transfected 293T cells, 5 ug/ml; grade of Loss of binding read by footnote 2
# Excerpt: (§1) Resolution of the crystal structure of MHG-8 Fab/GARP/TGF-β1 complexes and analysis with the CONTACT software allowed the identification of 22 amino-acids in GARP, 8 amino-acids in LAP and 6 amino-acids in mature TGF-β1 that are located less than 5 Å away from an amino-acid of the light or heavy chain of the MHG-8 Fab (Tables 7a, b and c, and Table 8). Directed mutagenesis was used to construct plasmids encoding HA-tagged forms of GARP or TGF-β1 that are mutated at one, two, or three of these 36 positions (all mutations constructed are indicated in Table 8). […] Antibodies were used at a saturating concentration of 5 μg/ml for labeling. Binding of each antibody to a given mutant GARP/TGF-β1 complex was compared to their binding to wild type (WT) complexes, by determining an I_{m/wt} value (i.e. intensity of binding to mutant by comparison to WT). This value was calculated as follows: I_{m/wt} of antibody X=[Geom on mutant−Geom on control]/[Geom on WT−Geom on control]
# (§2) The level of residual binding of anti-GARP or anti-LAP antibodies to each mutant was then calculated by comparison to WT, taking into account the expression levels of mutant and WT forms as measured with anti-HA antibodies. Residual binding was calculated as follows: Residual binding by an anti-GARP or anti-LAP antibody=[I_{m/wt} with anti-GARP or anti-LAP antibody]/[I_{m/wt} with anti-HA antibody]
# [3] = biological target: GARP / TGF-β1 Q272Y complex (human, UniProt Q14392 20-662; P01137 30-390); assay: as above
# Excerpt: as §1, §2
# [4] = biological target: GARP R166M/H167E / TGF-β1 complex (human, UniProt Q14392 20-662; P01137 30-390); assay: as above
# Excerpt: as §1, §2
# [5] = biological target: GARP / TGF-β1 Y284A complex (human, UniProt Q14392 20-662; P01137 30-390); assay: as above
# Excerpt: as §1, §2
# [6] = biological target: GARP / TGF-β1 L271R/Q272Y/S273W complex (human, UniProt Q14392 20-662; P01137 30-390); assay: as above
# Excerpt: as §1, §2
# [7] = biological target: GARP R143A / TGF-β1 complex (human, UniProt Q14392 20-662; P01137 30-390); assay: as above
# Excerpt: as §1, §2
# [8] = biological target: GARP / TGF-β1 S337A complex (human, UniProt Q14392 20-662; P01137 30-390); assay: as above
# Excerpt: as §1, §2
# [9] = biological target: GARP Y137H/S138G/G139N / TGF-β1 complex (human, UniProt Q14392 20-662; P01137 30-390); assay: as above
# Excerpt: as §1, §2
# [10] = biological target: GARP / TGF-β1 H270Y complex (human, UniProt Q14392 20-662; P01137 30-390); assay: as above
# Excerpt: as §1, §2
# [11] = biological target: GARP / TGF-β1 E100A complex (human, UniProt Q14392 20-662; P01137 30-390); assay: as above
# Excerpt: as §1, §2
# [12] = biological target: GARP G139N / TGF-β1 complex (human, UniProt Q14392 20-662; P01137 30-390); assay: as above
# Excerpt: as §1, §2
# [13] = biological target: GARP / TGF-β1 R58A complex (human, UniProt Q14392 20-662; P01137 30-390); assay: as above
# Excerpt: as §1, §2
# [14] = biological target: GARP A114R / TGF-β1 complex (human, UniProt Q14392 20-662; P01137 30-390); assay: as above
# Excerpt: as §1, §2
# Sequence of GARP Y137H/S138G/G139N / TGF-β1 complex (Q14392 20-662 Y137H/S138G/G139N limits assumed, chain 1 of 2): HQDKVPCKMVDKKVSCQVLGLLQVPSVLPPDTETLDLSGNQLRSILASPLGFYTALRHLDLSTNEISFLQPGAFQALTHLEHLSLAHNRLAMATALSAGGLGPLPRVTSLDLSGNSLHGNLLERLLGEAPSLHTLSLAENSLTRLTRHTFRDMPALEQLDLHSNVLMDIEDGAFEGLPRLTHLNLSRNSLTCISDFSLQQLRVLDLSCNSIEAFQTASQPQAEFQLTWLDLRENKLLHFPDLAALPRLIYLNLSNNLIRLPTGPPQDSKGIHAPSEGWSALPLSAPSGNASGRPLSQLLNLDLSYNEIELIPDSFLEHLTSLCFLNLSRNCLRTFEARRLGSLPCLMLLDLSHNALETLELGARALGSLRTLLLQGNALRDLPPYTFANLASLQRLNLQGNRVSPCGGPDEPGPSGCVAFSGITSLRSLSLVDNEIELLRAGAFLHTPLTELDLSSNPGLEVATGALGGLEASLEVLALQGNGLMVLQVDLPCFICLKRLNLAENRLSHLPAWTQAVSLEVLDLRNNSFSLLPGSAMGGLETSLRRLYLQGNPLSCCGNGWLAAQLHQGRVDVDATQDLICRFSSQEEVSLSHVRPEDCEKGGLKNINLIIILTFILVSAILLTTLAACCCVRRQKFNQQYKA
# Sequence of GARP Y137H/S138G/G139N / TGF-β1 complex (P01137 30-390 limits assumed, stated change not applied, chain 2 of 2): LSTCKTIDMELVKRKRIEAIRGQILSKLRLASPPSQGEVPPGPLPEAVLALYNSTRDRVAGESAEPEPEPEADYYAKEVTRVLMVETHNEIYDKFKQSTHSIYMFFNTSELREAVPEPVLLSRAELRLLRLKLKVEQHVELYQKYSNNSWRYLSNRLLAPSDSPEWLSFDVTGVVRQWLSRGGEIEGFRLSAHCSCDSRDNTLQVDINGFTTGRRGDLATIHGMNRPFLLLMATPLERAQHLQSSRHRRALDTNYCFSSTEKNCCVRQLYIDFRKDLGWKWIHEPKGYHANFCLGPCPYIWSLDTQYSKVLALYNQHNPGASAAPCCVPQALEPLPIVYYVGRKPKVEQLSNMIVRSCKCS
# Sequence of GARP / TGF-β1 E100A complex (Q14392 20-662 limits assumed, stated change not applied, chain 1 of 2): as the sequence (Q14392 20-662 Y137H/S138G/G139N limits assumed, chain 1 of 2) above, with H118Y, G119S, N120G counted along it
# Sequence of GARP / TGF-β1 E100A complex (P01137 30-390 E100A limits assumed, chain 2 of 2): as the sequence (P01137 30-390 limits assumed, stated change not applied, chain 2 of 2) above, with E71A counted along it
# Sequence of GARP / TGF-β1 R58A complex (Q14392 20-662 limits assumed, chain 1 of 2): as the sequence (Q14392 20-662 Y137H/S138G/G139N limits assumed, chain 1 of 2) above, with H118Y, G119S, N120G counted along it
# Sequence of GARP / TGF-β1 R58A complex (P01137 30-390 R58A limits assumed, chain 2 of 2): as the sequence (P01137 30-390 limits assumed, stated change not applied, chain 2 of 2) above, with R29A counted along it
# Sequence of GARP / TGF-β1 Y284A complex (Q14392 20-662 limits assumed, chain 1 of 2): as the sequence (Q14392 20-662 Y137H/S138G/G139N limits assumed, chain 1 of 2) above, with H118Y, G119S, N120G counted along it
# Sequence of GARP / TGF-β1 Y284A complex (P01137 30-390 Y284A limits assumed, chain 2 of 2): as the sequence (P01137 30-390 limits assumed, stated change not applied, chain 2 of 2) above, with Y255A counted along it
# T1 sequence (P01137 30-390 limits assumed): as the sequence (P01137 30-390 limits assumed, stated change not applied, chain 2 of 2) above
binder,measurement,setting,value
B1,binding result,human TGF-β1 (latent),no binding
same,binding result,[1],no binding
same,residual binding on mutant by comparison to WT,[2],≥ 50%
same,residual binding on mutant by comparison to WT,[3],≥ 50%
same,residual binding on mutant by comparison to WT,[4],≥ 50%
same,residual binding on mutant by comparison to WT,[5],≥ 50%
same,residual binding on mutant by comparison to WT,[6],≥ 50%
same,residual binding on mutant by comparison to WT,[7],≥ 50%
same,residual binding on mutant by comparison to WT,[8],≥ 50%
same,residual binding on mutant by comparison to WT,[9],< 50%
same,residual binding on mutant by comparison to WT,[10],≥ 50%
same,residual binding on mutant by comparison to WT,[11],≥ 50%
same,residual binding on mutant by comparison to WT,[12],≥ 50%
same,residual binding on mutant by comparison to WT,[13],≥ 50%
same,residual binding on mutant by comparison to WT,[14],≥ 50%
